# Experimental data published in IntAct's records for PubMed 16362034.
# B1: ETS-like protein pointed (Drosophila melanogaster (Fruit fly)), P51023 (parent)
# chain: MELAICKTDLSATKFMLPPALPSSAAIGSSSAVASTASHFLDKAAHELFQLNAINGHLFKSPASSHLNSVGSPSILSQLNGIGNSGNHSGQVSTMRLKKNRKVTFLSSLVESKNIFIKEEPIHGCKDLCSLSDISDHEASLEVPTALPPLTPGTNRKVNEVLKASFASWEKEVQKCNITKDPREWTEEHVIYWLNWAKNEFSLVSMNLDPFYKMKGRAMVDLGKEKFLAITPPFTGDILWEHLDILQKDCEKPNEDIVHGNSFESATTASVCGSDHQVANYPNETHANSNNSSINSRLSMDYVTSAGNSDNKNFHRATPHSHNGYNTSNTHDRINNSTPPQQQQSQQPTVNGSGSASSNNNNSMLPPAVQQSNNENNNTSSSNTNNSSNNNNNSGGSNNSNAGSNNNNNNNNNINFMAAAAIFQHHLKEEPGTQNGNIGGYGGGSNSQNDPTDLSSYGLPAHLAAYGGGSGSGPTGGRSSGGGGDESDYHSTISAQDHQSQQSSGGNGSGGASGGSTGNSNGYLDSSSEFYGSYAGRNRFHDGYPPEFTPYDAQSFQSMGPQPTAMDQWGAAHAHQHPAAYMSTLGLDKGLLGGYTTQGGVPCFTGSGPIQLWQFLLELLLDKTCQSFISWTGDGWEFKLTDPDEVARRWGIRKNKPKMNYEKLSRGLRYYYDKNIIHKTAGKRYVYRFVCDLQNLVGHTPEELVAKYDLKIEKKDVD
# Variants of: B1
# Conditions: with erka_drome rl
row,Variant,effect of a mutation on the interaction
1,F234A,decreasing interaction
2,L228R,decreasing interaction
3,T151A,disrupting interaction
